Results as given in article PMC6624373.

B1: lamin A (human, mature form, without tags, wild type) [human] / itself (parent)
chain: METPSQRRATRSGAQASSTPLSPTRITRLQEKEDLQELNDRLAVYIDRVRSLETENAGLRLRITESEEVVSREVSGIKAAYEAELGDARKTLDSVAKERARLQLELSKVREEFKELKARNTKKEGDLIAAQARLKDLEALLNSKEAALSTALSEKRTLEGELHDLRGQVAKLEAALGEAKKQLQDEMLRRVDAENRLQTMKEELDFQKNIYSEELRETKRRHETRLVEIDNGKQREFESRLADALQELRAQHEDQVEQYKKELEKTYSAKLDNARQSAERNSNLVGAAHEELQQSRIRIDSLSAQLSQLQKQLAAKEAKLRDLEDSLARERDTSRRLLAEKEREMAEMRARMQQQLDEYQELLDIKLALDMEIHAYRKLLEGEEERLRLSPSPTSQRSRGRASSHSSQTQGGGSVTKKRKLESTESRSSFSQHARTSGRVAVEEVDEEGKFVRLRNKSNEDQSMGNWQIKRQNGDDPLLTYRFPPKFTLKAGQVVTIWAAGAGATHSPPTDLVWKAQNTWGCGNSLRTALINSTGEEVAMRKLVRSVTVVEDDEDEDGDDLLHHHHGSHCSSSGDPAEYNLRSRTVLCGTCGQPADKASASGSGAQVGGPISSGSSASSVTVTRSYRSVGGSGGGSFGDNLVTRSY

Variants of: B1
Experiment: rotary metal shadowing EM
Conditions: with itself; n = 1000 per mutant; parent: 22; read off a plot

Q: For chain 1 R7E R8E, which screen value is on record?
A: 13%

Same assay, conditions: with itself; n = 1000 per mutant; parent: 35; read off a plot

Q: How did the screen value turn out when chain 1 R7E R8E was run?
A: 30%

Same assay, conditions: with itself; n = 1000 per mutant; parent: 43; read off a plot

Q: Which screen value does the source give for chain 1 R7E R8E here?
A: 57%

Variants of: B1
Experiment: in vitro assembly/solubility assay (centrifugation, SDS-PAGE band quantification)
Conditions: with itself; oligomerisation buffer; n = 3 independent replicas; parent: 1; read off a plot

Q: With chain 1 R7E R8E as the variant, how does the ratio to parent read?
A: 3.7
